Data as given in the array DNA melting data of Ke et al..

Experiment: melting temperature; melt of duplexes
Details: sodium 0.0675 M; strand 1 µM

Substance	Tm
CGACGTGCTGGATGTGCTG+CAGCACATGGCGCACGTCG ((((((((...((((((((+))))))))...))))))))	49.6 °C
CGACGTGCTGGATGTGCTG+CAGCACATGTCGCACGTCG ((((((((...((((((((+))))))))...))))))))	50.3 °C
CGACGTGCTGGATGTGCTG+CAGCACATGTTGCACGTCG ((((((((...((((((((+))))))))...))))))))	51.4 °C
CGACGTGCTGGATGTGCTG+CAGCACATTAAGCACGTCG (((((((((..((((((((+))))))))..)))))))))	54.8 °C
CGACGTGCTGGATGTGCTG+CAGCACATTCAGCACGTCG ((((((((((.((((((((+)))))))).))))))))))	60 °C
CGACGTGCTGGATGTGCTG+CAGCACATTCCGCACGTCG ((((((((.(.((((((((+)))))))).).))))))))	53.9 °C
CGACGTGCTGGATGTGCTG+CAGCACATTCTGCACGTCG ((((((((.(.((((((((+)))))))).).))))))))	55.6 °C
CGACGTGCTGGATGTGCTG+CAGCACATTGCGCACGTCG ((((((((...((((((((+))))))))...))))))))	49.5 °C
CGACGTGCTGGATGTGCTG+CAGCACATTGTGCACGTCG ((((((((...((((((((+))))))))...))))))))	48.3 °C
CGACGTGCTGGATGTGCTG+CAGCACATTTAGCACGTCG (((((((((..((((((((+))))))))..)))))))))	54 °C
CGACGTGCTGTATGTGCTG+CAGCACATAGAGCACGTCG (((((((((.(((((((((+))))))))).)))))))))	55.9 °C
CGACGTGCTGTATGTGCTG+CAGCACATAGTGCACGTCG ((((((((..(((((((((+)))))))))..))))))))	48 °C
CGACGTGCTGTATGTGCTG+CAGCACATATAGCACGTCG (((((((((.(((((((((+))))))))).)))))))))	57 °C
CGACGTGCTGTATGTGCTG+CAGCACATATCGCACGTCG ((((((((..(((((((((+)))))))))..))))))))	50.9 °C
CGACGTGCTGTATGTGCTG+CAGCACATATGGCACGTCG ((((((((..(((((((((+)))))))))..))))))))	54.4 °C
CGACGTGCTGTATGTGCTG+CAGCACATATTGCACGTCG ((((((((..(((((((((+)))))))))..))))))))	52.7 °C
CGACGTGCTGTATGTGCTG+CAGCACATCACGCACGTCG ((((((((...((((((((+))))))))...))))))))	50.7 °C
CGACGTGCTGTATGTGCTG+CAGCACATCAGGCACGTCG ((((((((...((((((((+))))))))...))))))))	51.7 °C
CGACGTGCTGTATGTGCTG+CAGCACATCTCGCACGTCG ((((((((...((((((((+))))))))...))))))))	48.9 °C
CGACGTGCTGTATGTGCTG+CAGCACATCTGGCACGTCG ((((((((...((((((((+))))))))...))))))))	50.9 °C
CGACGTGCTGTATGTGCTG+CAGCACATGACGCACGTCG ((((((((...((((((((+))))))))...))))))))	47.9 °C
CGACGTGCTGTATGTGCTG+CAGCACATGATGCACGTCG ((((((((...((((((((+))))))))...))))))))	51.3 °C
CGACGTGCTGTATGTGCTG+CAGCACATGCAGCACGTCG ((((((((((.((((((((+)))))))).))))))))))	60.3 °C
CGACGTGCTGTATGTGCTG+CAGCACATGCCGCACGTCG ((((((((.(.((((((((+)))))))).).))))))))	52.8 °C

Substance	Tm
CGACGTGCTGTATGTGCTG+CAGCACATGCGGCACGTCG ((((((((.(.((((((((+)))))))).).))))))))	55.7 °C
CGACGTGCTGTATGTGCTG+CAGCACATGGTGCACGTCG ((((((((...((((((((+))))))))...))))))))	47.2 °C
CGACGTGCTGTATGTGCTG+CAGCACATGTAGCACGTCG (((((((((..((((((((+))))))))..)))))))))	53.3 °C
CGACGTGCTGTATGTGCTG+CAGCACATGTGGCACGTCG ((((((((...((((((((+))))))))...))))))))	51 °C
CGACGTGCTGTATGTGCTG+CAGCACATGTTGCACGTCG ((((((((...((((((((+))))))))...))))))))	50.4 °C
CGACGTGCTGTATGTGCTG+CAGCACATTCAGCACGTCG ((((((((((.((((((((+)))))))).))))))))))	57.5 °C
CGACGTGCTGTATGTGCTG+CAGCACATTCCGCACGTCG ((((((((.(.((((((((+)))))))).).))))))))	50.1 °C
CGACGTGCTGTATGTGCTG+CAGCACATTCTGCACGTCG ((((((((.(.((((((((+)))))))).).))))))))	52 °C
CGACGTGCTGTATGTGCTG+CAGCACATTTAGCACGTCG (((((((((..((((((((+))))))))..)))))))))	51.5 °C
CGACGTGCTGTATGTGCTG+CAGCACATTTTGCACGTCG ((((((((...((((((((+))))))))...))))))))	49.2 °C
CGACGTGCTTAATGTGCTG+CAGCACATAAAGCACGTCG ((((((((((.((((((((+)))))))).))))))))))	56.2 °C
CGACGTGCTTAATGTGCTG+CAGCACATAGAGCACGTCG (((((((((..((((((((+))))))))..)))))))))	53.1 °C
CGACGTGCTTAATGTGCTG+CAGCACATATAGCACGTCG (((((((((..((((((((+))))))))..)))))))))	54.2 °C
CGACGTGCTTAATGTGCTG+CAGCACATATGGCACGTCG ((((((((...((((((((+))))))))...))))))))	51.4 °C
CGACGTGCTTAATGTGCTG+CAGCACATCAAGCACGTCG ((((((((((.((((((((+)))))))).))))))))))	55 °C
CGACGTGCTTAATGTGCTG+CAGCACATCCGGCACGTCG ((((((((...((((((((+))))))))...))))))))	49 °C
CGACGTGCTTAATGTGCTG+CAGCACATCGTGCACGTCG ((((((((...((((((((+))))))))...))))))))	43.3 °C
CGACGTGCTTAATGTGCTG+CAGCACATCTGGCACGTCG ((((((((...((((((((+))))))))...))))))))	49.7 °C
CGACGTGCTTAATGTGCTG+CAGCACATCTTGCACGTCG ((((((((...((((((((+))))))))...))))))))	48.9 °C
CGACGTGCTTAATGTGCTG+CAGCACATGAAGCACGTCG ((((((((((.((((((((+)))))))).))))))))))	57.4 °C
CGACGTGCTTAATGTGCTG+CAGCACATGCAGCACGTCG (((((((((..((((((((+))))))))..)))))))))	52 °C
CGACGTGCTTAATGTGCTG+CAGCACATGGTGCACGTCG ((((((((...((((((((+))))))))...))))))))	50.3 °C
CGACGTGCTTAATGTGCTG+CAGCACATTACGCACGTCG ((((((((.((((((((((+)))))))))).))))))))	54.8 °C
CGACGTGCTTAATGTGCTG+CAGCACATTATGCACGTCG ((((((((.((((((((((+)))))))))).))))))))	56.5 °C

Substance	Tm
CGACGTGCTTAATGTGCTG+CAGCACATTCAGCACGTCG (((((((((.(((((((((+))))))))).)))))))))	55.5 °C
CGACGTGCTTAATGTGCTG+CAGCACATTGAGCACGTCG (((((((((.(((((((((+))))))))).)))))))))	56.9 °C
CGACGTGCTTAATGTGCTG+CAGCACATTTAGCACGTCG (((((((((.(((((((((+))))))))).)))))))))	55.5 °C
CGACGTGCTTAATGTGCTG+CAGCACATTTCGCACGTCG ((((((((..(((((((((+)))))))))..))))))))	51 °C
CGACGTGCTTAATGTGCTG+CAGCACATTTGGCACGTCG ((((((((..(((((((((+)))))))))..))))))))	53.4 °C
CGACGTGCTTAATGTGCTG+CAGCACATTTTGCACGTCG ((((((((..(((((((((+)))))))))..))))))))	52.5 °C
CGACGTGCTTCATGTGCTG+CAGCACATAATGCACGTCG ((((((((.(.((((((((+)))))))).).))))))))	50.4 °C
CGACGTGCTTCATGTGCTG+CAGCACATACGGCACGTCG ((((((((...((((((((+))))))))...))))))))	47.7 °C
CGACGTGCTTCATGTGCTG+CAGCACATACTGCACGTCG ((((((((...((((((((+))))))))...))))))))	48.3 °C
CGACGTGCTTCATGTGCTG+CAGCACATATAGCACGTCG (((((((((..((((((((+))))))))..)))))))))	51.5 °C
CGACGTGCTTCATGTGCTG+CAGCACATATTGCACGTCG ((((((((...((((((((+))))))))...))))))))	49.1 °C
CGACGTGCTTCATGTGCTG+CAGCACATCCCGCACGTCG ((((((((...((((((((+))))))))...))))))))	47.5 °C
CGACGTGCTTCATGTGCTG+CAGCACATCCGGCACGTCG ((((((((...((((((((+))))))))...))))))))	47.8 °C
CGACGTGCTTCATGTGCTG+CAGCACATCGTGCACGTCG ((((((((...((((((((+))))))))...))))))))	43.2 °C
CGACGTGCTTCATGTGCTG+CAGCACATCTAGCACGTCG (((((((((..((((((((+))))))))..)))))))))	50.3 °C
CGACGTGCTTCATGTGCTG+CAGCACATCTCGCACGTCG ((((((((...((((((((+))))))))...))))))))	47 °C
CGACGTGCTTCATGTGCTG+CAGCACATCTGGCACGTCG ((((((((...((((((((+))))))))...))))))))	48.9 °C
CGACGTGCTTCATGTGCTG+CAGCACATCTTGCACGTCG ((((((((...((((((((+))))))))...))))))))	48.3 °C
CGACGTGCTTCATGTGCTG+CAGCACATGAAGCACGTCG (((((((((((((((((((+)))))))))))))))))))	64.4 °C
CGACGTGCTTCATGTGCTG+CAGCACATGACGCACGTCG ((((((((.((((((((((+)))))))))).))))))))	55.1 °C
CGACGTGCTTCATGTGCTG+CAGCACATGCAGCACGTCG (((((((((.(((((((((+))))))))).)))))))))	56.9 °C
CGACGTGCTTCATGTGCTG+CAGCACATGGAGCACGTCG (((((((((.(((((((((+))))))))).)))))))))	60 °C
CGACGTGCTTCATGTGCTG+CAGCACATGGCGCACGTCG ((((((((..(((((((((+)))))))))..))))))))	53 °C
CGACGTGCTTCATGTGCTG+CAGCACATGTCGCACGTCG ((((((((..(((((((((+)))))))))..))))))))	52.2 °C
